A protein production outcome set (Wang et al. 2014)

Assay: label from the status in PepcDB records
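Further: failed if final PepcDB status was selected cloned or expressed and not failed if soluble or beyond.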

**Q.** With “VGDHDSHEVMQRLDALLPTLRERAQETEDLRRIPDDSMKALQETGFFRLLQPEQWGGYQADPVLFYSAVRKIASACGSTGWVSSIIGVHNWHLALFSQQAQEDVWGNDTDVRISSSYAPMGAGQVVDGGYTVNGAWAWSSGCDHASWAVLGGPVIKDGRPVDFVSFLIPREDYRIDDVWNVVGLRGTGSNTVVVEDVFVPTHRVLSFKAMSNLTAPGLERNTAPVYKMPWGTIHPTTISAPIVGMAYGAYDAHVEHQGKRVRAAFAGEKAKDDPFAKVRIAEASSDIDAAWRQLSGNVADEYALLVAGEEVPFELRLRARRDQVRATGRAISSIDKLFESSGATALANGTPLQRFWRDAHAGRVHAANDPERAYVMYGTGEFGLPITDTMV” as the sequence, how does the protein production read?
**A.** not failed

**Q.** With “VGKLKIYFGFAAGVGKTYAMLSDAKDQLAAGVDVVAGYIEPHAREETLRMLEGIPIIPPKAINHKNIALKEFDLDEALKRKPELILVDELAHTNASGVRNKKRFQDVEELLQAGIDVYTTVNVQHIESLNDIVEGITKVAVRETIPDYVFDEADRVKLIDIEPDELLKRLEQGKIYQPARAKTAMQNFFTRENLKLLREIAMRKAADRISHEYDQTGIYPE” as the sequence, how does the protein production read?
**A.** not failed

**Q.** For “VGPHAALMDATYRHQRRIYDITRRHFLLGRDELIAALAPPPGARVLEIACGTGRNLDLIDRRWPGLRLYGLDISEEMLRTARARLGTRARLAQGDATDFDARALFGAARFERIVISYALSMIPDWRPALAHAASLLSKEGELHVVDFGDQAGLPRWFRTGLRGWIGRFHVEPRDDLGAALAEVAAGVG”, which protein production is on record?
**A.** failed

**Q.** For “VHVEDALTYLDQVKIRFGSDPATYNGFLEIMKEFKSQSIDTPGVIRRVSQLFHEHPDLIVGFNAFLP”, which protein production is on record?
**A.** not failed

**Q.** Which protein production does the source give for “VIKKEGPGWRIIFDSSRDNFSTLIGGETWAIELDKSEWKILVEVVMELCDQYKLVKEQLMGDEDITLELERRPWLAILNGDQYGWNLRLILSASGLFNRGAEVYWPRHVTNNVVNAMRSMWDSDYL” here?
**A.** not failed

**Q.** With “VISSDVIRGYVDTIILSLLIEGDSYGYEISKNIRIKTDELYVIKETTLYSAFARLEKNGYIKSYYGEETQGKRRTYYRITPEGIKYYKQKCEEWELTKKVINKFVKELESNGDN” as the sequence, how does the protein production read?
**A.** not failed

**Q.** Which protein production does the source give for “VKFLTVNDDILSMPQARNFCASAGGYLADDLGDDKNNFYSSIAANTQFWIGLFKNSDGQFYWDRGQGINPDLLNQPITYWANGEPSNDPTRQCVYFDGRSGDKSKVWTTDTCATPRPFICQKHRYDSDHKPNTIGDA” here?
**A.** not failed

**Q.** Which protein production does the source give for “VLAEYASRIVSAEEAVKHIKNGERVALSHAAGVPQSCVDALVQQADLFQNVEIYHMLCLGEGKYMAPEMAPHFRHITNFVGGNSRKAVEENRADFIPVFFYEVPSMIRKDILHIDVAIVQLSMPDENGYCSFGVSCDYSKPAAESAHLVIGEINRQMPYVHGDNLIHISKLDYIVMADYPIYSLAKPKIGEVEEAIGRNCAELIEDGATLQLGIGAIPDAALLFLKDKKDLGIHTEMFSDGVVELVRSGVITGKKKTLHPGKMVATFLMGSEDVYHFIDKNPDVELYPVDYVNDPRVIAQNDNMVSINSCIEIDLMGQVVSECIGSKQFSGTGGQVDYVRGAAWSKNGKSIMAIPSTAKNGTASRIVPIIAEGAAVTTLRNEVDYVVTEYGIAQLKGKSLRQRAEALIAIAHPDFREELTKHLRKRFG” here?
**A.** not failed

**Q.** For “VLWISSSPVLQRFDKPLLQYISKDVNVAQWEYRHHRDEGSSIDEAVDLLAEFMGQCPYPVNLAGHAAGGAIALSFARRYPKKVRSLSLLAVASQPANTWHAHYYLQRQLFTISREQILANTVRNLFGEQPSHTTKKLVAVLDRDLEQSPLLHSLFKLVHLPEGGVNMPLMICGSKNDPIVSSTTLQDWSNCLKPEDHLWECPKGHHFFHYFYPQTVGDQLLNFWQ”, which protein production is on record?
**A.** failed

**Q.** For “VMEIEARLEDVRQRIADVAEKSGRKAADVALVAVSKTFDAEAIQPVIDAGQRVFGENRVQEAQGKWPALKEKTSDIELHLIGPLQSNKAADAVALFDVVESIDREKIARALSEECARQGRSLRFYVQVNTGLEPQKAGIDPRETVAFVAFCRDELKLPVEGLMCIPPAEENPGPHFALLAKLAGQCGLEKLSMGMSGDFETAVEFGATSVRVGSAIFGSR”, which protein production is on record?
**A.** not failed

**Q.** With “VNSVAARVTELTGREVAAVAERGHSHRWHLYRVELADGTPLFVKALPDDAPALDGLFRAEALGLDWLGRSFGSPVPQVAGWDDRTLAMEWVDERPPTPEAAERFGHQLAAMHLAGAESFGATWDGYIGPLPMDNTPRSTWPEFYAEQRILPYLRRAADRGALTPGDVRLVEKVLDALDHLAGDPEPPARIHGDLWNGNVLWQDDGAVVIDPAAHGGHREADLAMLALFGLPYLDRVRDAYNEVAPLAEGWRARIPLHQLHPLLVHVCLFGAAYRTTLVDTARAALRA” as the sequence, how does the protein production read?
**A.** not failed

**Q.** For “VPPPGTMVMVERKVGSWVDGQPIDLQRDWRSWEQLPDSLKVAVIAGEDQHFAEHHGFDLPAIQQALAHNERGGSIRGASTLSQQVAKNVFLWSGRSWLRKGLEAWFTLLIETLWTKQRILEVYLNSAEWGPGVFGAQAAARYHFGLDAERLSRTQASQLAAVLPSPLKWSAARPGPYVRQRAAWIRQQMWQLGGDDYLLRLER”, which protein production is on record?
**A.** failed

**Q.** With “VQIKNATAIVTGASSGIGLAFASLLAQKGYNLLLIARNINKLNDLAKTLSTQYDTQCNVLSIDLSEENASKKVLEYIITNNLNISVLINNAGFSGNYKFLEADWSQLSKELNVMSIAVTELCYLIAPLMEKNSWGRIINVSSGAAYLPPTQSLLYTGLKSYVLNFSQSLDMELKPKGINVTALCPGFTRSEFHNTMGTNKQVSKVPNFLWQAPDQVA” as the sequence, how does the protein production read?
**A.** failed

**Q.** For “VQTPALIIVTGHPATGKTTLSQALATGLRLPLLSKDAFKEVMFDGLGWSDREWSRRVGATAIMMLYHTAATILQSGQSLIMESNFRVDLDTERMQNLHTIAPFTPIQIRCVASGDVLVERILSRIAQGARHPGHCDDRSPADLELVRSRGDIPPLPLGGPLLTVDTTFPEQIDMNAIVQWVRQHLQSGTAFL”, which protein production is on record?
**A.** not failed

**Q.** With “VRPDGRGKVTGELKYMTDLSFPGMLYGKVLRSAYPHAEIVSVCTIKAEKMEGVQAVVTHKDVPGLNRFGIVIPDQPVLCEDRVRYVGDAIAAVAAETEEIAEAALELIQVEYKELEVMDSPEKALRPNAQRLHEDGNILHRAFFSNGDVEEGFQASDTVFEETYELPRQMHTYMETEGGVAVPEDDGGFTMYAGTQHGYKDRFQLARIFDIPEEKIRIVSSPMGGSFGGKDELNIQPYAALLALKSGRPVKIHQTRKESVRSGIKRHPMKITIKTGADHSGNLLAHDVKIVADTGAYATLGPAVLDFSVEHAAGPYRIPNIRTEGISVFTNNGVAGEFRGFGGNQITFALETHLDRLSGMLGIDPLELRRKNIRKPHDLGPLEHRIAPTDGAAQVLNAISKSPILKKTSRNCGYLQRGTGAAITMHGGGLGFGRMDAAGGRLSLSSEGKITASFGFEECGQGILAAIEQIVMEELGCAAEDISIVIGDTAKVPKSGSSTASRGTSMVWHAIQRLKKPFLAQLKKRAAEWSGCSAENLIPGAAGLRDKNTKALVVTYKELAEKGPLAEETAFDFPTTPDPVVGGHFLYSFGAAAVEVEVDLLTGDVKLIDCEHAIAAGPVVSPQGYRGQIEGGAAMALGYTLMEEAKMTDGRYAAENLDHYLIPGIKDVPDMKLIAIEDLMKGDVYGPRGVGEIGTIAITPAIVKAVHDAVGCWINKLPISREELLEAIDRKGL” as the sequence, how does the protein production read?
**A.** failed

**Q.** For “VRPGDTEIDKLVALIDAADKVTLFCGSGTAGAHAEVMEFAEKIKSPVGHALRGKEWIQYDNPYDVGMSGLLGYGAAYEATNECDLLILLGTDFPYNAFLPTDVKIAQVDVRPERLGRRSKLDLAVWGDVRETLRCLIPRVKPKENRRFLDKMLKKHADALEGVIKAYTRKVEK”, which protein production is on record?
**A.** failed

**Q.** Which protein production does the source give for “VSDRPAGRMPLTVHRNVGRWLSEILHASIRDTGVSSRIEFVRRTLHGWVREEYSETELPNAVYRNLYFPVLDAQPAHAGSGKIETISECDRLKNLVRNVTDTLVENYPQGLESEALLIALDGVKLELARIRKDIEMYGDPRKR” here?
**A.** not failed

**Q.** For “VSIPANNSPVRLALIGAGRWGKNYIRTIAGLPGAALVRLASSNPDNLALVPPGCVIESDWRSVVSAPEVEAVIIATPPATHAEITLAAIASGKAVLVEKPLTLDLAEAEAVAAAAKATGVMVWVEHTQLFNPAWEALKADLTSIGPILAVRSEAGNHGPYRPGGVPMLWDWGAHDVSMVLDLMGRDPDSTSASWAARGEKDGGEAGDVTLTLAFSTVEAHIRLCNTMDKCRRLAVFGEAGTLVMDDRATDKLTLHPPQPDGNWPVGQGHALTVTDEMPLTRAVRLFAGAVRQPEPGPSPLELGLRVVRVLGACS”, which protein production is on record?
**A.** not failed

**Q.** With “VSVIMPVLNEERHLRGAVQAILAQEYDGEMEVVIAIGPSSDRTEEIAAELVREDPRVHTVPNPTGRTPAALNAAIKASRHPVVVRVDGHGMLSPNYIATAVRLLAETGAQNVGGIMHAEGENDWEHAVAAAMTSKIGVGNAAFHTGGEAGPAETVYLGVFRREALEQQGGYNEEFIRAQDWELNFRIREAGGLIWFSPELKVSYRPRPSVRALAKQYKDYGRWRHVVARYHEGSINLRYLAPPTAVCAIAAGVVVGLALTPWGLVVPGGYLAAIALGS” as the sequence, how does the protein production read?
**A.** failed

**Q.** With “VTLLVKSPNQRHRDLELSGDRGWSVGHLKAHLSRVYPERPRPEDQRLIYSGKLLLDHQCLRDLLPKQEKRHVLHLVCNVK” as the sequence, how does the protein production read?
**A.** not failed

**Q.** For “VTSDPGTAAPVKRTAEQSRSLIVDAAGRAFATRPYREITLKDIAEDAGVSAPLIIKYFGSKEQLFDALVDFRAAAEIVFSGPLDGLGERMVSMFARPLEPYKPLSLNILFMSGPSEESSRKLRANYSAQMIDALAERLPGRDARLRAELVMSMLTGLAVMRRKMMQEHATGTPEEVVAHYAPLVQELLDG”, which protein production is on record?
**A.** not failed

**Q.** For “VVQRAAETYDLLKQRTEELRRANAQMSLLTVLVQVTQASNSLEAILTPIATAFAESFAVNACILQMLEGQTLSTIQGFYSQQGTVNNWLNQDPLTNEAIATGQIQVAANIAKDPKLASISQYQDNGIQSHVVIPITYRNEMLGVLSLQWQQPISLREDELTLIHLSAQLVAIALTSSRCSL”, which protein production is on record?
**A.** not failed

**Q.** With “WKPELDELARRENFAQQMGGIDKVKRQHDQGRLTVRERIDRLSDAGSFHEIGAVAGLGEYDANGELINLTPANCVFGRAKIDGRTVVVVGDDFTVRGGSADASIHAKPQMAEEMAHDYRLPIIRVIEGSGGGGSVRTIESKGAANLPGGVDGTRWYWYTTAN” as the sequence, how does the protein production read?
**A.** failed

**Q.** For “WRGIRQRKLHAEELLRLAMAHLRNQGKPVRIVDIAAGHGRYILESLRGVEPLPESILLRDYSDINVRDGSLLIEQKDLEDIARFVKGDAFDRNDLATLDPKPTLAVVSGLYELFSSNQMVGDSLAGLAAAVEPGGYLVYTGQPWHPQLELIARALTSHREGQAWVMRRRSQSEMDQLVEAAGFRKITQRVDEW”, which protein production is on record?
**A.** failed

**Q.** For “WTCNKFRCGEKRLTRSLCACSDDCKDQGDCCINYSSVCQGEKS”, which protein production is on record?
**A.** not failed

**Q.** Which protein production does the source give for “YAMSIYAAQHDVRIVNPYFVPTSSIRKALKRALNRGTKVEIMISSKSDIPFTPDASLYAVQKLMKKGAMIYLYNGGFHHSKIMMVDDLFCTVGTANLNSRSLRYDYETNAFIFDKDITQQLNDVFEADMLHCTRLTPEMWKQKSAWKKFKCWFANLFTPFL” here?
**A.** failed

**Q.** Which protein production does the source give for “YLYFNSDSFILLIAPTRSGKGVGVVIPNLLVYNQSMVILDLKQENFSITSKYRAKYGQQVFLFNPFTENGQTHRYNPLSYVREGDCKIGDILTITASFYPIDDLKNSFWNNQASNLFLGLALMISETPSLPFTIGELLRQSSGKGKPLKEYLQGIMDDREKSSSPLSESCIDALNRFIALTDNSLSNVLASFNAPLTLWANPLFDAATSANDFDLRELRKKKMTVYIGITPDYLEQAERILNLFFSQLININTKELPEHNPELKYQCLLVMDEFTAMGRIGILAKSVSYMAGYGLRLLTIIQAPSQLDSVYGKEEARTYKTNHAGQILFAPRENEDAEEYSKAIGYKTVKAKSNSKTRGELKQTDSTSDQRRAVMLPQEIKEIGMWKEIICIENLKPIFCKKVQYFNDPVFIDRLKEVSS” here?
**A.** failed

**Q.** For “YQAIYRRATTYLAMGRGKAAIVDLERVLELKPDFYGARIQRGNILLKQGELEAAEADFNIVLNHDSSN”, which protein production is on record?
**A.** failed
